Data from a protein production outcome set (Wang et al. 2014).

Assay: label from the status in PepcDB records

With “MIQSSLYRALNKGFDYQILACKDFKESELAKEVISYFKPNTKAILFPEFRAKKNDDLRSFFEEFLQLLGGLREFYQALENKQETIIIAPISALLHPLPKKELLESFKITLLEKYNLKDLKDKLFYYGYEILDLVEVEGEASFRGDIVDIYAPNSKAYRLSFFDTECESIKEFDPITQMSLKEDLLEIEIPPTLFSLDESSYKDLKTKVEQSPLNSFSKDLTSFGLWFLGEKAQDLLIVYKSIISPRALEEIQELASLNELDCERFKFLKVLENAQGYEDLEIHAHALEGFIALHSNHKITLLAPNKTILDNAISALDAGNMECVIAPFVLNFKTPDGIFISLNSFERKKKRQKSKLALNELNPGEWVVHDDYGVGVFSQLVQHSVLGSKRDFLEIAYLGEDKLLLPVENLHLIARYVAQSDSVPAKDRLGKGSFLKLKAKVRTKLLEIASKIIELAAERNLILGKKMDVHLAELEVFKSHAGFEYTSDQEKAIAEISKDLSSHRVMDRLLSGDVGFGKTEVAMHAIFCAFLNGFQSALVVPTTLLAHQHFETLRARFENFGVKVARLDRYASEKNKLLKAVELGQVDALIGTHAILGAKFKNLGLVVVDEEHKFGVKQKEALKELSKSVHFLSMSATPIPRTLNMALSQIKGISSLKTPPTDRKPSRTFLKEKNDELLKEIIYRELRRNGQIFYIHNHIASILKVKTKLEDLIPKLKIAILHSQINANESEEIMLEFAKGNYQVLLCTSIVESGIHLPNANTIIIDNAQNFGLADLHQLRGRVGRGKKEGFCYFLIEDQKSLNEQALKRLLALEKNSYLGSGESVAYHDLEIRGGGNLLGQDQSGHIKNIGYALYTRMLEDAIYELSGGKKRLEKSVEIQLGVSAFLNPELIASDSLRLDLYRRLSLCENTDEVGQIHEEIEDRFGKIDDLSAQFLQIITLKILANQLGIIKLSNFNQNITITYSDEKKESLKAPSKDDNDILETLLKHLRAQISLKRR” the protein production was “failed”.
In the case of “MIRGGRNNITSAPAFSKDAKKLLLCTANTVSVYSVATGLKITSLEDHTAPVTSVIVDPSSDETVSYCWTSSLDGKIRIWEFSAPKLLKIFDTHLPIHSLVMIPAQVSHSVIAYVSVEDYSSVSKDLFGQIRRYDLTQDPLHSGDTLKEMEEPKPIVLSPSGEFFGVCHNCSIHIWNVASEHLMPKETTLHHTELITVFAFHPNQRILAAGDVTGRVLIWKDNGIGEFTSVKTEDDTESCTTFNWHSAEVTVLNFSSDGALLYSGVKAGDFVVWELGTGKKQLLPKIGSPLLYFIFSSDSTLSSVICADNQIHLLKMPSMEILRTISGIKPPTPERHGFICYVKTRDICLTRTVSIDRSSGIAAFCTANHRVQLYNLLSDHDISEVQICDHHPDDDDQVRVLVTAVALSRNGSVMTTAEARFAASNFSEGIVSLKFWVFVPDSKTFSLSTVINQPHREAAITAIALNPARSMAVSISSAGDFKIWVCSSDKNLTPEDSNWICHGVGSYKRTPITAAVFSGDGSCLALAAKTVITIWHPLKNELLYVVGKANAPIMELSFTGGGFLIAASHGSTPHLSVWDLMTFCLSWSYRLYIEAIATEVDSPYFAVLTWLPESDRLVKSNEQIFRGKDGAILLFDGSGPKPVAIWTVMKARGGTLSFVEDGKKSQPLLAYVNRSHEYVLFDPYSDEKLETSAIDYEVFLAAISKKKKRSRKKALMSEKPWETMFCGSTLNFPPFPDLCASFFSSRMQKEVCERADRQPERHSS”, the protein production is reported as “failed”.
With “MIRILICFSLITASLLITSIFANSALLFTEFIHSLVDLIPIAFAFYALRIIDRIDSKYTYGLHRLEIVSSLFNIFTVVAGSVFSVYISTVELIEGSRGDFLLVLISSSIALSLSLVASTDKSEEGRVSGSKLHAIQDSLAYILAVISSLLIIIMKIYFIDPVSAYILNGVLVITSLSPLKFSYNILMEKSPIDTKSVETELQSIFPQVHHIHVWSICDHLNVATLHVRENPDLTLRELDKKREYAEKVLREKFGITHVTIQFEANNKKERLEKI” the protein production was “failed”.
In the case of “MIRKLDKAEFQQATTLALEVYLQCGQDDFEDEGLESFKSFIFNDKLMNELCIYGAFEENKLIGIMGTKNEGKHISLFFIKKEFHRKGIGKQLFDYSQCDCPANEITVNSSTYAIRFYESLGFEKTNDRQQTNGISYTPMKLISNKLEHHHHHH”, the protein production is reported as “not failed”.
In the case of “MIRKLMICIAVLVGFCPMAWGTVDDVPNPKTYDADNWVSDPDHILDSETKNKINDILQQLEDSLTIEVAVVALNSIGEEEPHEFAVTLFNLWGVGKAKDDNGLLILLTRDIRDITFKTGYGLEGVLPDAICKRIQMETMVPHLRENDWNTGMLEGVKAVAAVLYGSDYQAAPPEAWIKKFRRTTPSLVFIVFALMLILINWLVWKSAVHRMTPKDEGTEAALALLATRNPFTARTLLGLCWLVPVWPAMLGIACWYFGIQKQKTLRRSRTCPKCNRETLREIPLHELIKDTKRLTESERKETELKTAYIRIYRCSACSEEVKIRIPLEKDGYECCPSCGHMTLHKEEKYRTIIKATTSSEGLMEARHRCMYCDAEYMVGYTIPKINPSSRRSGGSGGGGGGSFGGGSSGGGGSSSRF”, the protein production is reported as “failed”.
For “MIRLNVFVRVNETNREKAIEAAKELTACSLKEEGCIAYDTFESSTRRDVFMICETWQNAEVLAAHEKTAHFAQYVGIIQELAEMKLEKFEF”, the protein production was “not failed”.
For “MIRSIVCTQRLIHRIMYTSARKYFIQFAIVAFVLGFIPTLYFIHAASQLETQAVSSVEKQTRLQLEFSQHDLLRMLESTHQATQLLAKNDLLFTAVTTPSKEALSQLKTLWDVTLRSQAIFSSFRLLDRQGKEQLKAIYDGHQVTFVESAQTTDPFSQQIVAQYAQLTTPQVWATQVAMSADTPSGMLPTFRFVTGIEHQGQRQGFLVVTVKLQSLYQRLSFIYDQFDSPDILNSAGELLLSEHKPSGTRSTSSLHFSAQHPELWQKIQLNQQGFALSNQTWFSYIKVDLSSVLPDFKPLVLVLRINKAEIDKTYANARWALMSQAVTVLSLLSIIAAGFAAWNINHLKNSLDSKLARAAMDGMSAVVITDRQNRIIKVNNEFTRLSGYTFEDVKGKQPSIFASGLHKVEFYMQMWKALQDNGVWEGEVINKRKDGESITEILRIQSIRDEDNVIQFYVASFVDISHRKALENRLRELSEKDALTDLWNRRKFDQTISLECAKRRRYPDQAQSCLAIIDIDHFKRINDKFGHNEGDLVLRTVAKGIQDQLRESDFIARIGGEEFAIIFPYTSIEEAEQVLNRVRLHIASLHHQQVTLSGGVTDVCTSPDQSYKRADLALYESKTSGRNQISVLTAMEMHHFA”, the protein production was “failed”.
With “MIRVASLIKAMSDTQLQIAQGASPLTGLPGNSAIEQEIKRRLNSGNAFGMIYADLNQFKAFNDTYGFQYGDSIIKLLGKILMQDSLKADDLAFVGHVGGDDFIILTTQNVTKTLGETILLSFQEQLSAMQGAQDLSLALAGLIIYPHTAWTPATLSERIAAVKREAKKAHCNYFLLRELEHHHHHH” the protein production was “failed”.
In the case of “MIRVMATGVFDILHLGHIHYLKESKKLGDELVVVVARDSTARNNGKIPIFDENSRLALISELKVVDRAILGHEGDMMKTVIEVKPDIITLGYDQKFDEAELQSKINKLGITVKIVRISKYDGQLNSSSSVRKKIMELIGERY”, the protein production is reported as “not failed”.
In the case of “MISALDSIPEPQNFAPSPDFKWLCEELFVKIHEVQINGTAGTGKSRSFKYYEIISNFVEMWRKTVGNNIYPALVLALPYRDRRIYNIKDYVLIRTICSYLKLPKNSATEQRLKDWKQRVGKGGNLSSLLVEEIAKRRAEPSSKAITIDNVNHYLDSLSGDRFASGRGFKSLVKSKPFLHCVENMSFVELKYFFDIVLKNRVIGGQEHKLLNCWHPDAQDYLSVISDLKVVTSKLYDPKVRLKDDDLSIKVGFAFAPQLAKKVNLSYEKICRTLHDDFLVEEKMDGERIQVHYMNYGESIKFFSRRGIDYTYLYGASLSSGTISQHLRFTDSVKECVLDGEMVTFDAKRRVILPFGLVKGSAKEALSFNSINNVDFHPLYMVFDLLYLNGTSLTPLPLHQRKQYLNSILSPLKNIVEIVRSSRCYGVESIKKSLEVAISLGSEGVVLKYYNSSYNVASRNNNWIKVKPEYLEEFGENLDLIVIGRDSGKKDSFMLGLLVLDEEEYKKHQGDSSEIVDHSSQEKHIQNSRRRVKKILSFCSIANGISQEEFKEIDRKTRGHWKRTSEVAPPASILEFGSKIPAEWIDPSESIVLEIKSRSLDNTETNMQKYATNCTLYGGYCKRIRYDKEWTDCYTLNDLYESRTVKSNPSYQAERSQLGLIRKKRKRVLISDSFHQNRKQLPISNIFAGLLFYVLSDYVTEDTGIRITRAELEKTIVEHGGKLIYNVILKRHSIGDVRLISCKTTTECKALIDRGYDILHPNWVLDCIAYKRLILIEPNYCFNVSQKMRAVAEKRVDCLGDSFENDISETKLSSLYKSQLSLPPMGELEIDSEVRRFPLFLFSNRIAYVPRRKISTEDDIIEMKIKLFGGKITDQQSLCNLIIIPYTDPILRKDCMNEVHEKIKEQIKASDTIPKIARVVAPEWVDHSINENCQVPEEDFPVVNY”, the protein production is reported as “failed”.
In the case of “MISLRTFLITFLVNIALLGIFWGNRMNFVDVVIFSFFSALFVSLATHILVTSRLRKLREAVARKSRFEDFLNDEITKLAEEVNSVVENSLIQEKETEKLKDIVTGFVHDVKSLVWNEVEDENLQKIIEEFYEFAKLEAGLERLRKEPVNLVELVNDVVEKFPGKVIFKYDDVVEVEADPMKLFRAFYNVIENAVKYSSGPVEVHVKKDRIIVKGPGPEIPYEVRANLFEKKKKSKGTGLGLYLAREFFEMHGFRIAYRREGNHNVFEIYTGYTGMSSVKSERDSR”, the protein production is reported as “not failed”.
For “MISMKEEIKKVIEETGLPIITDEKSGAAQWVDLRELRLSYIISVENIKPFYEGLKEGKLLGTKCKKCGRLFFPPQKDCPSCFDSDIEWVELKNEGTLETMTVVFVRPPSFSAYDPYPVAIAKLDDGPRILAWYKGDPQQAKPGMRVKIQVGKRKEGYLMYEIAPALEHHHHHH”, the protein production was “failed”.
For “MISPDAKIKIQNFGRFLSNMVMPNIGAFIAWGFITALFIPTGWLPNETLASMVGPMITYLLPLLIGYTGGKLVGGDRGAVVGAITTMGVIVGTDIPMFMGAMMVGPMGGWAIKKFDNYIDGKVKSGFEMLVNNFSAGIIGMLCAILAFFLIGPFVKVLSGALAAGVNFLVSAHLLPLTSIFVEPAKILFLNNAINHGIFSPLGIQQASETGQSIFFLIEANPGPGLGILLAYMVFGKGTARQTAGGASIIHFFGGIHEIYFPYILMNPRLILAAIAGGMTGVFVLTMFNAGIVSPASPGSIFAILLMTQKGSIVGVLASIAAATGVSFAVASLLMKTQTSTEEDGDEAALEKATSQMKDMKSSSKNGAVVNNESKGDVDLATVQSIIVACDAGMGSSAMGASMLRKKVQDAGLNVHVTNLAINSLPESADIVITHKDLTGRARKHAPNAHHISLTNFLDSEMYNQLVTKLLAAQKQSAANDDQMVKVSVLAANDDSFEPQQPSVFQIQRENIHLGLKAANKEEAIRFAGNKLVELGYAEPEYVDAMFEREALVPTYLGESIAVPHGTVEAKDRVKKTGIVICQYPSGIQFTEDDDDVAKLVIGIAAKNDEHIQVITTITNALDEPEAIEKLTSTNDVEEILNILGGQQAA”, the protein production was “failed”.
With “MISRQQKMTFKEIKDGEMEERDILLTGFYNVRLNSVQEARLTYNLPNDQTVKFGFDGNGYSYGSDFWYIYNRTAQLGKEISSHLDENASKWIEEAGQKGYTTGNQAKVGAIACLPSYLSDAESSSHLAFVEYLNSDGSFIVSEMPSPNILNWRLIQPQSKMTFIYL” the protein production was “failed”.
